This assay deals with MogR, full-length (transcriptional repressor of flagellar motility genes) (Listeria monocytogenes).
Sequence of MogR, full-length (transcriptional repressor of flagellar motility genes) (Listeria monocytogenes) (G2K449 whole entry): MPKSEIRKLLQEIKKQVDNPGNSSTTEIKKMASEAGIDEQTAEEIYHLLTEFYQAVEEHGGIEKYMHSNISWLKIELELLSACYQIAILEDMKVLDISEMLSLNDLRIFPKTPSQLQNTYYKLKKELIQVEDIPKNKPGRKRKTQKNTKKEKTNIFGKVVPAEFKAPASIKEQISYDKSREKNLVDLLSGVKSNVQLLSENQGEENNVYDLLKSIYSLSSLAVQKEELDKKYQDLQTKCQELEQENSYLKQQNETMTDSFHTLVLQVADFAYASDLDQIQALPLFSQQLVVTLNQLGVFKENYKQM

For the substance “GmaR, full-length (bifunctional flagellar anti-repressor/glycosyltransferase) (natural protein)”, the gel mobility shift at 37°C: amount of purified GmaR-His6 needed to decrease shifted MogR-His6:DNA complexes as at 30°C is more than 2 fold.

For the origin of these results see PMC3150276.
